From article PMC4840014, “The G-quadruplex-forming aptamer AS1411 potently inhibits HIV-1 attachment to the host cell”

Key:
[1] = target: nucleolin (NCL) (human (human recombinant protein), UniProt P19338 1-710); assay: SPR; HEPES-KCl; SPR (Biacore T100, CM5 chip), HEPES-KCl buffer (composition, pH and temperature not given), oligos 15.6-1000 nM, heated 95 C 5 min and cooled to room temperature, 20 uL/min, 120 s contact and dissociation, 1 M KCl regeneration
[2] = target: gp120 envelope glycoprotein (HIV-1 IIIB, UniProt P04578 33-511); assay: SPR; HEPES-KCl; up to 1000 nM; SPR (Biacore T100, CM5 chip), HEPES-KCl buffer (composition, pH and temperature not given), oligos 15.6-1000 nM, heated 95 C 5 min and cooled to room temperature, 20 uL/min, 120 s contact and dissociation, 1 M KCl regeneration; details: protein: recombinant

Chain of nucleolin (NCL) (P19338 whole entry): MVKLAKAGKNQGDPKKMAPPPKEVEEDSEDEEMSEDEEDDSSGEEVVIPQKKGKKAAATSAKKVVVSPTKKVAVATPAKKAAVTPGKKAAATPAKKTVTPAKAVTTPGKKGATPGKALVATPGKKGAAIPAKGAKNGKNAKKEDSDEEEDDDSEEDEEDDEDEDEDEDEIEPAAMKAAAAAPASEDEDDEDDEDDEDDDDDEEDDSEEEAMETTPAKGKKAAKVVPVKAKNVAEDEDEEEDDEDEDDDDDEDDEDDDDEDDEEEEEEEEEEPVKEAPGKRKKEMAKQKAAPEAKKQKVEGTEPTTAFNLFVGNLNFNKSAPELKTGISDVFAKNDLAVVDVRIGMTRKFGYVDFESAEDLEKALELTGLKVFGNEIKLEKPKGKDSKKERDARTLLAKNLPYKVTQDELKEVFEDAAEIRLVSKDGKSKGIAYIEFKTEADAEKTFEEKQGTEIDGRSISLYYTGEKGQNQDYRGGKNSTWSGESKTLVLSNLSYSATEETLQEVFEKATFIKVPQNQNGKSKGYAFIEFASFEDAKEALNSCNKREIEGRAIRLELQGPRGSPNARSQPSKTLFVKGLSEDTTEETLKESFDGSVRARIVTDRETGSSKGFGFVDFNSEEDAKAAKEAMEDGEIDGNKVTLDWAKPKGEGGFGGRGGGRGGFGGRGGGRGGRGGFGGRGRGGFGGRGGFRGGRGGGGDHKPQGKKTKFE

## GGTGGTGGTGGTTGTGGTGGTGGTGG (structured_DNA) [AS1411]
[1]; G4, described as dimeric
  Kd: 34.2 nM

B1: SCRA (ssDNA)
DNA: TTTTTGGAGCGTGTGTGCGCGAGAGCGTGCGCGTGGCGAGCGTGGAGTGGTTTTT
[2]; G-rich, non-G4
  binding result: no binding

## CCTCCTCCTCCTTCTCCTCCTCCTCC (ssDNA) [CRO26]
[2]; C-rich, negative control
  binding result: no binding

## GGGAGGCGTGGCCTGGGCGGGACTGGGG (structured_DNA) [LTR-III]
[1]; G4
  Kd: 76.3 nM
